# Source: patent US20210292393A1 (published 2021)
# Changes are numbered by the printed parent chain.
# B1: antibody 476 (antibody, V domains shown)
# VH: QVQLVQSGSELKKPGASVKVSCKASGYTFTSYAMNWVRQAPGQGLEWMGWINTNTGNPTYAQGFTGRFVFSLDTSVSTAYLQISSLKAEDTGVYYCARDHELPNSSSWFGHFEYWGQGTLVTVSS
# VL: SYELTQPPSVSVSPGQTARITCSGDALPKQYAYWYQQKAGQAPVLVIYKDSERRSGIPERFSGSSSGTTVTLTISGVQAEDEADYYCQSADSSGTSVVFGGGTKLTVL
# B2: antibody 485 (antibody, V domains shown)
# VH: QVQLQESGPGLVKPSGTLSLTCAVSGASISSSNWWSWVRQPPGKGLEWIGEIYHSGSTNYNPSLKSRVTISVDKSKNQFSLKLSSVTAADTAVYYCARRSYYGSGSYYPFDYWGQGTLVTVSS
# VL: QSALTQPASVSGSPGQSITISCTGTSSDVGSYNLVSWYQQHPGKAPKLMIYEGRKRPSGVSNRFSGSKSGNTASLTISGLQAEDEADYYCCSYAGSSTYVFGTGTKVTVL
# B3: antibody 475 (antibody, V domains shown)
# VH: QVQLVESGGGVVQPGRSLRLSCAASGFTFSSYAMHWVRQAPGKGLEWVTFISHEGSNKYYADSVKGRFTISRDNSKNTLYLQMNSLRAEDTAVYYCARTFEYSSSSATGDFDYWGQGTLVTVSS
# VL: QSVLTQPPSVSGAPGQRVTISCTGSSSNIGAGYDVHWYQQLPGTAPKLLIYGNSNRPSGVPDRFSGSKSGTSASLAITGLQAEDEADYYCQSYDSSLSGVVFGGGTKLTVL
# B4: antibody 477 (antibody, V domains shown)
# VH: QVQLVESGGGVVQPGRSLRLSCAASGITFSSYAMHWVRQAPGKGLEWVAVISYDGSDKYHADSVKGRFAISRDNSKNTLYLQMNSLRAEDTAVYYCAKDKGIAVAGTGWIRPDPEYYFDYWGQGTLVTVSS
# VL: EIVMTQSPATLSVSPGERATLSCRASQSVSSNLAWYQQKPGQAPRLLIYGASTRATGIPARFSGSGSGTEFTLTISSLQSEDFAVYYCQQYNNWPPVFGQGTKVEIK
# B5: antibody 571 (antibody, V domains shown)
# VH: EVQLVESGGGLVQPGGSLRLSCAASGFTFSTYWMTWVRQAPGKGLEWVANIKHDGSGKYHVDSVKGRFTISRDNAKNSLYLQMNSLRAEDTAVYYCTRDEGGWYDYWGQGTLVTVSS
# VL: QSALTQPASVSGSPGQSITISCTGTSSDVGSYNPVSWYQQHPGKAPKVMIYEGSKRPSGVSNRFSGSKSGNTASLTISGLQAEDEADYYCCSYARSSTFVVFGGGTKLTVL
# B6: antibody 560 (antibody, V domains shown)
# VH: EVQLVESGGGLVQPGGSLRLSCAASGFTISSNYMSWVRQAPGKGLEWVSVIYSGGSTYYADSVKGRFTISRDNSKNTLYLQMNSLRAEDTAVYYCAREEGEWEKDYYGMDVWGQGTTVTVSS
# VL: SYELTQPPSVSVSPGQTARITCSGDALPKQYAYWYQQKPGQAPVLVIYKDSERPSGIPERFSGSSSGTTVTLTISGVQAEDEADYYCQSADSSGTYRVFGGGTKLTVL
# B7: antibody 564 (antibody, V domains shown)
# VH: QVHLVESGGGVVQPGKSLRLSCAASGFIFSSFGMHWVRQPPGKGLEWLAVVSYDGSVTKYSDSFEGRFTISRDNSKNTLYLQMDSLRPEDTAVYYCAKGQGTNLLHYWGQGILVTVSS
# VL: DVVLSQSPLSLPVTLGQPASISCRSSESLVYTDGDTYLHWFHQRPGQSPRRLIFKVSHRESGVPDRISGSGSGTDFTLKISRVEAEDVGVYYCMQGTHWPFTFGPGTKVDIK
# B8: antibody 546 (antibody, V domains shown)
# VH: QVQLVESGGGVVQPGRSLRLSCAASGFTFSSYGMHWVRQAPGKGLEWVAVIWYDGSNKYYADSVKGRFTISRDNSKNTLYLQMNSLRAEDTAVYYCARNCGGDCVAGDGFDYWGQGTLVTVSS
# VL: DIQMTQSPSSLSASVGDRVTITCRASQSISSYLNWYQQKPGKAPNLLIYAASSLQSGVPSRFSGSGSGTDFTLTISSLQPEDFATYYCQQSYSALTWTFGQGTKVEIK
# B9: antibody 545 (antibody, V domains shown)
# VH: B1 VH with S85V
# VL: B1 VL
# B10: antibody 563 (antibody, V domains shown)
# VH: QVQLVESGGGVVQPGRSLRLSCAASGFTFSSYAMHWVRQAPGKGLEWVAVISDDGSNKYYADSVKGRFTISRDNSKNTLYLQMNSLRAEDTAVYYCARDIVATIRRLFDYWGQGTLVTVSS
# VL: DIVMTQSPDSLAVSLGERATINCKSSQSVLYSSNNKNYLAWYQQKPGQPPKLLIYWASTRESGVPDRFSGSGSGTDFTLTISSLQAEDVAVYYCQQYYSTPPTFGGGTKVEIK
# B11: antibody 548 (antibody, V domains shown)
# VH: QVQLVESGGGVVQPGRSLRLSCAASGFTFSSYAMHWVRQAPGKGLEWVAVISYDGSNKYYADSVKGRFTISRDNSKNTLYLQMNNLRAEDTAVYYCAKSGSGSYLSAFDIWGQGTMVTVSS
# VL: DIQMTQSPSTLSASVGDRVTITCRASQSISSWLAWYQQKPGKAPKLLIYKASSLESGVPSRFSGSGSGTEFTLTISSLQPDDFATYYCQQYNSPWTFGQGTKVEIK
# B12: antibody 576 (antibody, V domains shown)
# VH: B11 VH with N85S, S99A, S101G, L105Y, S106R, A107G, I110Y, M116L
# VL: DIQLTQSPSFLSASVGDRVTITCRASQGISSYLAWYQQKPGKAPKLLIYAASTLQSGVPSRFSGSGSGTEFTLTISSLQPEDFATYYCQQLNSYPTFGPGTKVDIK
# B13: antibody 569 (antibody, V domains shown)
# VH: B11 VH with N85S, K98R, S99A, G100S, S103G, L105Q, S106G, A107P, I110P, M116L
# VL: EIVLTQSPATLSLSPGERATLSCRASQSVSSYLAWYQQKPGQAPRLLIYDASNRATGIPARFSGSGSGTDFTLTISSLEPEDFAVYYCQQRSSPFGPGTKVDIK
# B14: antibody 566 (antibody, V domains shown)
# VH: QVQLVQSGAEVKKPGASVKVSCKASGYTFTSYAMHWVRQAPGQRLEWMGWINAGNGNTKYSQKFQGRVTITRDTSASTAYMELSSLRSEDTAVYYCARDLGVAVTLHPADFDYWGQGTLVTVSS
# VL: B3 VL with G52D, G99A
# B15: antibody 544 (antibody, V domains shown)
# VH: QVQLQQWGAGLLKPSETLSLTCAVYGGSFSGYYWSWIRQPPGKGLEWIGEINHSGSTNYNPSLKSRVTISVDTSKNQFSLKLSSVTAADTAVYYCARGFKWFGELLFGAQGTLVTVSS
# VL: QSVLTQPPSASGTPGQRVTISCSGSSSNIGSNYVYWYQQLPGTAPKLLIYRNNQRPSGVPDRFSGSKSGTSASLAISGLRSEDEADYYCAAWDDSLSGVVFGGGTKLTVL
# B16: antibody 556 (antibody, V domains shown)
# VH: QVQLVESGGGVVQPGRSLRLSCAASGFTFSSYAMHWVRQAPGKGLEWVAVISYDGSDKYYADSVKGRVTISRDNSKNTLYLQMNSLRVEDTAVFYCAKDDCSGGVCFPDYWGQGTLVTVSS
# VL: QSALTQPASVSGSPGQSITISCTGTSSDVGGYNYVSWYQQHPGKAPKLMIYEVSIRPSGVSNRFSGSKSGNTASLTISGLQAEDEAAYYCSSYTSSSTLVFGGGTKLTVL
# Target: SARS-CoV spike protein (full length, trimeric) (SARS-CoV, UniProt P59594 14-1190)
row,Binder,fold over isotype control (median fluorescence) [fold over isotype]
1,B1,1.04
2,B2,1.12
3,B3,1.18
4,B4,1.3

# Target: SARS-CoV spike protein (full-length trimeric, conjugated to optically encoded beads) (SARS-CoV, UniProt P59594 14-1190)
row,Binder,fold over isotype control (median fluorescence intensity) [fold over isotype]
1,B5,1.28
2,B6,1.14
3,B7,37.3
4,B8,1.18
5,B9,1.13
6,B10,35.4
7,B11,18.1
8,B12,6.87
9,B13,3.31
10,B14,0.97
11,B15,1.05
12,B16,1.09
